Test results: patent US20230212244A1 (IMMATICS BIOTECHNOLOGIES, published 2023)

target: T1, HLA-A*02:01 (human); assay: UV-ligand exchange ELISA (anti-β2m), peptide exchange yield grade
T1 construct: MHC class I monomer made peptide-receptive by UV cleavage of a UV-sensitive ligand; also called peptide-receptive MHC molecules
Description: Candidate peptides for T cell based therapies according to the present invention were further tested for their MHC binding capacity (affinity). The individual peptide-MHC complexes were produced by UV-ligand exchange, where a UV-sensitive peptide is cleaved upon UV-irradiation, and exchanged with the peptide of interest as analyzed. Only peptide candidates that can effectively bind and stabilize the peptide-receptive MHC molecules prevent dissociation of the MHC complexes. To determine the yield of the exchange reaction, an ELISA was performed based on the detection of the light chain (β2m) of stabilized MHC complexes. The assay was performed as generally described in Rodenko et al. (Rodenko et al., 2006).
96 well MAXISorp plates (NUNC) were coated over night with 2ug/ml streptavidin in PBS at room temperature, washed 4× and blocked for1h at 37° C. in 2% BSA containing blocking buffer. Refolded HLA-A*02:01/MLA-001 monomers served as standards, covering the range of 15-500 ng/ml. Peptide-MHC monomers of the UV-exchange reaction were diluted 100 fold in blocking buffer. Samples were incubated for 1h at 37° C., washed four times, incubated with 2 ug/ml HRP conjugated anti-β2m for 1h at 37° C., washed again and detected with TMB solution that is stopped with […]. Absorption was measured at 450 nm. Candidate peptides that show a high exchange yield (preferably higher than 50%, most preferred higher than 75 %) are generally preferred for a generation and production of antibodies or fragments thereof, and/or T cell receptors or fragments thereof, as they show sufficient avidity to the MHC molecules and prevent dissociation of the MHC complexes.

Binder | peptide exchange yield
QVDEVVDIMRV (also called QVDEVVDIMRV) [peptide … (SEQ ID NO: 80)] | 20 to 50%
SILQFVHMV [peptide SILQFVHMV (SEQ ID NO: 68)] | 50 to 75%
AILDAHIEV [peptide AILDAHIEV (SEQ ID NO: 95)] | ≥ 75%
SLNDLEKDVMLL [peptide SLNDLEKDVMLL (SEQ ID NO: 67)] | 50 to 75%
QLYEEPDTKL [peptide QLYEEPDTKL (SEQ ID NO: 82)] | 20 to 50%
WIDDTSAFV [peptide WIDDTSAFV (SEQ ID NO: 92)] | 50 to 75%
FLFGYPKRL [peptide FLFGYPKRL (SEQ ID NO: 103)] | 20 to 50%
KLYSRLVYV [peptide KLYSRLVYV (SEQ ID NO: 96)] | 20 to 50%
SLIEYEFRV [peptide SLIEYEFRV (SEQ ID NO: 89)] | 50 to 75%
AMADKMDMSL [peptide AMADKMDMSL (SEQ ID NO: 58)] | 20 to 50%
TVDVATPSV [peptide TVDVATPSV (SEQ ID NO: 91)] | 50 to 75%
GMLNEAEGKAIKL [peptide GMLNEAEGKAIKL (SEQ ID NO: 69)] | 20 to 50%
LLFDAPDLRL [peptide LLFDAPDLRL (SEQ ID NO: 87)] | 50 to 75%
EMIENIQSV [peptide EMIENIQSV (SEQ ID NO: 75)] | 20 to 50%
ALLSQQTHL [peptide ALLSQQTHL (SEQ ID NO: 81)] | 50 to 75%
YLTRHLAVL [peptide YLTRHLAVL (SEQ ID NO: 7)] | 20 to 50%
LTIEDGIFEV [peptide LTIEDGIFEV (SEQ ID NO: 83)] | 50 to 75%

Binder | peptide exchange yield
ALDPELLLL [peptide ALDPELLLL (SEQ ID NO: 78)] | 20 to 50%
YLMGFLHAV [peptide YLMGFLHAV (SEQ ID NO: 74)] | 50 to 75%
SLAADQLLKL [peptide SLAADQLLKL (SEQ ID NO: 79)] | 20 to 50%
KILVSLIEV [peptide KILVSLIEV (SEQ ID NO: 102)] | 50 to 75%
YLFDIAVSM [peptide YLFDIAVSM (SEQ ID NO: 73)] | 50 to 75%
SMVEDITGLRL [peptide SMVEDITGLRL (SEQ ID NO: 84)] | 50 to 75%
KTLGKLWRL [peptide KTLGKLWRL (SEQ ID NO: 64)] | 20 to 50%
YLIGEKQHYL [peptide YLIGEKQHYL (SEQ ID NO: 76)] | 50 to 75%
GLSEGHTFQV [peptide GLSEGHTFQV (SEQ ID NO: 101)] | 50 to 75%
SLDDFLATA [peptide SLDDFLATA (SEQ ID NO: 100)] | 50 to 75%
KLFSILSTV [peptide KLFSILSTV (SEQ ID NO: 63)] | 20 to 50%
VLFTDEGVPKFL [peptide VLFTDEGVPKFL (SEQ ID NO: 56)] | 20 to 50%
SLLKRDFGA [peptide SLLKRDFGA (SEQ ID NO: 77)] | 20 to 50%
KSMDIVLTV [peptide KSMDIVLTV (SEQ ID NO: 94)] | 50 to 75%
AMNGKSFSV [peptide AMNGKSFSV (SEQ ID NO: 98)] | 20 to 50%
GLDDGPDFL [peptide GLDDGPDFL (SEQ ID NO: 66)] | 20 to 50%

Second part, the binder after the results:

peptide exchange yield | Binder
≥ 75% | SLQELRLLL [peptide SLQELRLLL (SEQ ID NO: 93)]
50 to 75% | ALMLQGVDLL [peptide ALMLQGVDLL (SEQ ID NO: 8)]
50 to 75% | MISELEVRL [peptide MISELEVRL (SEQ ID NO: 70)]
20 to 50% | YLAPENGYL [peptide YLAPENGYL (SEQ ID NO: 62)]
20 to 50% | ALWWGVVTV (also called ALWWGWTV) [peptide ALWWGVVTV (SEQ ID NO: 97)]
20 to 50% | ILDDHLSRV [peptide ILDDHLSRV (SEQ ID NO: 9)]
50 to 75% | NLLEKENYL [peptide NLLEKENYL (SEQ ID NO: 57)]
50 to 75% | YLLDYPNNLL [peptide YLLDYPNNLL (SEQ ID NO: 72)]
50 to 75% | RLWTEIPTAI [peptide RLWTEIPTAI (SEQ ID NO: 71)]
50 to 75% | GLLKPGLNVVL (also called …) [peptide GLLKPGLNVVL (SEQ ID NO: 90)]
20 to 50% | VLDEDEPRFL [peptide VLDEDEPRFL (SEQ ID NO: 60)]
50 to 75% | LLTDNVVKL [peptide LLTDNWKL (SEQ ID NO: 59)]
20 to 50% | KVFPGKISV [peptide KVFPGKISV (SEQ ID NO: 86)]
≥ 75% | KLDIKVETV [peptide KLDIKVETV (SEQ ID NO: 88)]
20 to 50% | ILHDINSDGVL [peptide ILHDINSDGVL (SEQ ID NO: 85)]
50 to 75% | FLAELPGSLSL [peptide FLAELPGSLSL (SEQ ID NO: 6)]
50 to 75% | KLLKLFQGV [peptide KLLKLFQGV (SEQ ID NO: 61)]
50 to 75% | KLLEVDLDTV [peptide KLLEVDLDTV (SEQ ID NO: 99)]
